Laboratory results published in the supplement of paper PMC9732359.
± gives the uncertainty stated by the source.

Assay: protein stability index of a GFP-peptide fusion (yeast GPS) (PSI 1-4); higher = more stable; sorted into four equal gates, so the index is relative within each strain
Procedure, shortened: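 For each peptide, the protein stability index sums the read frequency in every gate after multiplying it by the gate number. Read frequencies came from plasmids that were PCR-amplified from each gate and Illumina-sequenced, with reads assigned to strains by barcodes. The gates were four equal bins of GFP/Cherry fluorescence ratio applied to mid-log yeast in leucine-free medium carrying a pooled library of tiled 17-residue yeast protein peptides fused downstream of GFP on a Cherry-expressing plasmid.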

Sequence	protein stability index (doa10∆)	protein stability index (pdr5∆)	protein stability index (san1∆)	protein stability index (ubr1∆)
EKPLILADYIVEVLLVN [NUT1]	1.91 ± 0.047	1.49 ± 0.039	1.65 ± 0.17	1.32 ± 0.039
TPESVKPANASHAIRLG [RGR1]	2.63 ± 0.049	2.42 ± 0.037	2.98 ± 0.045	2.47 ± 0.039
VQDALLTNQLYKNHELL [SNF2]	3.19 ± 0.068	3.1 ± 0.072	3.08 ± 0.044	3.14 ± 0.061
APTPAAPGASVPATAAP [SWI1]	2.93 ± 0.068	3.05 ± 0.054	3.11 ± 0.042	3.21 ± 0.05
MLGEDEGNTVLEKGNNP [SWP82]	3.67 ± 0.13	3.22 ± 0.19	3.11 ± 0.099	3.69 ± 0.16
TMLELLNQLDGFETSKN [RPT6]	2.92 ± 0.13	3.13 ± 0.11	2.63 ± 0.2	2.84 ± 0.087
IVGQKNLNRAFNGDQVI [DIS3]	3.12 ± 0.078	2.83 ± 0.087	2.76 ± 0.057	2.98 ± 0.078
SPASGIVDKYIGESARI [RPT4]	2.95 ± 0.27	2.84 ± 0.18	2.45 ± 0.16	–
MQNSKVESVCQKLDILV [SMC4]	2.26 ± 0.065	2.13 ± 0.059	2.3 ± 0.088	1.87 ± 0.056
IYNELSYELIKEECQIE [CSN9]	2.47 ± 0.08	2.66 ± 0.06	2.73 ± 0.057	3 ± 0.048
TKEMDEVEEDDEDDDQP [SWI3]	3.39 ± 0.12	3.49 ± 0.068	3.48 ± 0.056	3.27 ± 0.066
RKILKKTFKNPKYESLK [RPN5]	2.87 ± 0.094	2.96 ± 0.07	3.18 ± 0.094	3.19 ± 0.062
PRDLLRVIIQELRFPSP [PRP28]	1.74 ± 0.047	1.94 ± 0.055	1.78 ± 0.064	1.72 ± 0.061
PGHEMEDFLDKSYYLNT [AAR2]	3.29 ± 0.07	3.1 ± 0.076	2.81 ± 0.065	3.11 ± 0.04
NKLRQQAIAKNNPQVVN [SNF5]	1.54 ± 0.035	1.94 ± 0.042	1.81 ± 0.049	1.65 ± 0.03
WKLLNQLVLRGLLSQAI [YJR042W/NUP85]	2.01 ± 0.18	1.3 ± 0.076	1.28 ± 0.11	1.17 ± 0.1
IDAMKAVAEAYNNRSLL [RPN6]	1.7 ± 0.061	2.07 ± 0.068	2.28 ± 0.095	1.79 ± 0.067
AALKKTRKAARPQKLRA [RPL6A]	2.96 ± 0.071	3.09 ± 0.05	2.97 ± 0.043	3.16 ± 0.055
NIELHSLYTSREPRVVS [PUP1]	2.56 ± 0.1	3.1 ± 0.068	3.22 ± 0.09	3.07 ± 0.078
SSSDFRLHYYPKDPSNV [BRR2]	3.21 ± 0.066	3.29 ± 0.06	3.47 ± 0.052	3.15 ± 0.042
IAKPNTANAKHTSSNSR [SMB1]	2.93 ± 0.069	2.73 ± 0.094	2.72 ± 0.089	2.87 ± 0.067
QNEMIDAIAVTKGHGFE [RPL3]	3.08 ± 0.11	3.21 ± 0.1	3.35 ± 0.1	3.34 ± 0.076
TIERSLIEEEVEQDEGQ [YCS4]	3.36 ± 0.24	3.27 ± 0.17	3.28 ± 0.084	3.5 ± 0.17
TNENGETDDNIETVMTQ [SRB4]	2.79 ± 0.099	2.53 ± 0.076	2.44 ± 0.089	2.5 ± 0.074
EETYEEKPQFKDGETTD [RPO26]	3.24 ± 0.23	2.98 ± 0.28	3.47 ± 0.19	3.34 ± 0.14
ATPSAKEASQEDDNNNV [YLR335W/NUP2]	2.57 ± 0.058	2.62 ± 0.056	2.76 ± 0.051	2.73 ± 0.05
RLRQGAAKLRTLDYAER [RPL2A]	1.61 ± 0.071	1.51 ± 0.049	1.56 ± 0.12	1.56 ± 0.048
